Test results as given in patent US8304236B2, “Modified biotin-binding protein” (Japan Tobacco Inc., priority 2008, dated 2012).
Residue numbers refer to the chain shown, from its start. In names and notes the source's numbering stands.

B1: TM2 R104EK141E: TM2 mutant, arginine 104 and lysine 141 each replaced with glutamic acid; SEQ ID NO: 16 (protein)
chain: MSDVQSSLTGTWYNELNSKMELTANKDGTLTGKYLSKVGDVYVPYPLSGRYNLQPPAGQGVALGWAVSWENSKIHSATTWSGQFFSESSPVILTQWLLSSSTAEGDVWESTLVGNDSFTKTAPTEQQIAHAQLHCRAPRLE
modifications: Synthetic TM2 R104EK141E
B2: TM2 D40NR104E: TM2 mutant having mutation of D40N and R104E; SEQ ID NO: 22 (protein)
chain: B1 chain with D40N, E141K
modifications: Synthetic TM2 D40NR104E

Assays:
[1] = Heat stability of protein structure (soluble protein after heating, SDS-PAGE); assay type: physicochemical; conditions: heated for 20 minutes
Protocol: 3-8) Heat Stability of HALU TM2 Protein Structure Each of 0.2 μg/μL TM2 mutant solutions (10 μL (2 μg)) was heated at room temperature, 50, 60, 70, 80, 90, or 99° C. for 20 minutes. Then, the solution was centrifuged at 15000 rpm for 10 minutes, and the soluble protein in the supernatant was suspended in the same volume of 2×SDS sample buffer (250 mM Tris-HCl, pH 6.8, 20% 2-mercaptoethanol, 20% SDS, 20% glycerol). The suspension was heated at 95° C. for 10 minutes, followed by SDS-PAGE. The protein bands were detected by CBB staining A standard curve was prepared using a quantitative marker (LMW ELECTROPHORESIS CALIBRATION KIT; Pharmacia Biotech) with Las-3000 (FUJIFILM) to quantify the protein bands.

[2] = Isoelectric focusing electrophoresis (pI observed); assay type: physicochemical; conditions: pH 3 to 10 gel
Protocol: The isoelectric point of each low-pI TM2 was measured by isoelectric focusing electrophoresis using an XCell SureLock Mini-Cell (Invitrogen). In accordance with the instruction, each low-pI TM2 (500 ng) and an IEF sample buffer (pH 3 to 10 (2×), Invitrogen) were mixed and were added to a polyacrylamide gel (pH 3 to 10, IEF Gel, Invitrogen) at a pH ranging from 3 to 10, followed by electrophoresis at a variable voltage of 100 V for 1 hour, 200 V for 1 hour, and 500 V for 45 minutes in this order.
After the electrophoresis, the gel was shaken in a blotting buffer (0.7% acetic acid) for 10 minutes and then was transferred onto a PVDF membrane at 10 V for 1 hour using an XCell ll Blot Module (Invitrogen). The PVDF membrane was subjected to reaction with anti-TM2 rabbit antibody (PCT/W2006/326260) serving as a primary antibody and with alkaline phosphate-labeled anti-rabbit IgG antibody (BIO-RAD) serving as a secondary antibody, followed by detection of bands with Alkaline Phosphatase Substrate Kit II
The isoelectric point of the high-affinity TM2 was measured by isoelectric focusing electrophoresis using an XCell SureLock Mini-Cell (Invitrogen). […] The electric point of TM2 D40N having replacement of the […] amino acid was higher than that of the wild type TM2 also in the isoelectric focusing electrophoresis.
The isoelectric point of HALU TM2 was measured by isoelectric focusing electrophoresis using an XCell SureLock Mini-Cell (Invitrogen). In accordance with the instruction, bands of each HALU TM2 (4 μg) were detected by CBB staining. […] The observed isoelectric point of TM2 D40N was 9.7, and was reduced to 8.9 after introduction of mutation of R104E and was reduced to 7.3 to 7.5 after further introduction of mutation of K141E.

human serum protein [3] = experiment: Non-specific adsorption of low-pI TM2 to human serum protein-immobilized magnetic beads; assay type: binding
Protocol: In this embodiment, non-specific binding to human serum was investigated as non-specific adsorption of low-pI TM2 to serum protein-immobilized magnetic beads. Specifically, in order to investigate the non-specific binding of low-pI TM2, the amount of low-pI TM2 adsorbed to magnetic beads to which human serum protein was covalently bonded was measured. TM2 K26A, TM2 K73Q, TM2 R104E, TM2 K141E, and TM2 R104EK141E, which were highly expressed in Escherichia coli, were used as the low-pI TM2 to be investigated.
Human serum protein and magnetic beads were bound to each other as follows. Magnetic beads having surfaces coated with carboxyl groups (Dynabeads M-270 Carboxylic Acid, Dynal, 210 μL) were washed with 0.01 N sodium hydroxide (210 μL) for 10 minutes and then with ultrapure water (210 μL) for 10 minutes three times. To the washed magnetic beads, 1-ethyl-3-(3-dimethylaminopropyl)carbodiimide hydrochloride (EDC, PIERCE) dissolved in cooled ultrapure water was added into a final concentration of 0.2 M, and the mixture was shaken at room temperature for 30 minutes. Then, the magnetic beads were washed with cooled ultrapure water (210 μL) and then with 50 mM MES buffer (pH 5.0, 210 μL).
To the magnetic beads, 1 mg/mL human serum protein (CHEMICON, 210 μL) dialyzed with 50 mM MES buffer (pH 5.0) was added. The mixture was shaken at room temperature for 30 minutes to covalently bind the human serum protein to the magnetic beads. The magnetic beads were collected with a magnet to remove the supernatant. The unreacted active groups on the beads were eliminated with 50 mM tris buffer (pH 7.0, 210 μL), and then the magnetic beads were blocked with a PBS buffer (420 μL) containing 0.5% BSA and 0.1% Tween 20. The magnetic beads were suspended in a PBS buffer (210 μL) to obtain human serum protein-immobilized magnetic beads.
The magnetic beads (7 μL) and 0.56 μg/mL of each low-pI TM2 (100 μL) were mixed for reaction at room temperature for 1 hour. The magnetic beads were collected with a magnetic, and the supernatant was removed. After washing with 20 mM potassium phosphate buffer (500 μL) containing 500 mM sodium chloride, the magnetic beads were mixed with 20 μL of 2×SDS sample buffer (250 mM Tris-HCl, pH 6.8, 20% 2-mercaptoethanol, 20% SDS, 20% glycerol), followed by heating at 95° C. for 20 minutes to dissociate the low-pI TM2 from the magnetic beads.
This sample was subjected to SDS-PAGE and then western blotting analysis to determine the amount of the low-pI TM2. Anti-tamavidin 2 rabbit antibody and alkaline phosphatase-labeled anti-rabbit IgG goat antibody were used as the primary antibody and the secondary antibody, respectively. The bands were detected with Alkaline Phosphatase Substrate Kit II <VECTOR Black> (VECTRO) and were quantified with Las-3000 (FUJIFILM).

Salmon sperm DNA = experiment: Non-specific binding to DNA (membrane-adsorbed DNA, biotinylated HRP, ECL); conditions: salmon sperm DNA 10 μg to 1 μg on membrane, 25 μg/mL protein
Protocol: Salmon sperm DNA diluted stepwise from 10 μg to 1 μg with 2×SSC buffer was denatured with an alkali and was adsorbed to Hybond N+membrane (Amersham Biosciences) using Bio-Dot SF (BIO-RAD). After blocking the membrane with 5×Denhardt's solution (0.1% BSA, 0.1% ficoll, 0.1% polyvinylpyrrolidone), the membrane was immersed in 25 μg/mL of low-pI TM2 or the wild-type TM2 at room temperature for 90 minutes. Then, the membrane was washed with a TUBS buffer (TBS buffer containing 0.05% Tween 20) at room temperature for 5 minutes three times. The membrane was blocked with a TBS buffer containing 3% skimmed milk and 0.1% Tween 20 for 1 hour. The membrane was subjected to a reaction with biotinylated horseradise peroxidase (Vector) diluted 5000 times with a TBS buffer containing 3% skimmed milk and 0.1% Tween 20 at room temperature for 1 hour. The membrane was washed with a TBS buffer containing 0.1% Tween 20 again and was then shaken in a solution that is a mixture of reagent 1 and reagent 2 of ECL (Amasham) in the same volumes, followed by detection of the luminol reaction with Las-3000 (FUJIFILM).
The non-specific binding of HALU TM2 to DNA was analyzed by the process in paragraph 1-11) of Example 1.

[4] = Biotin-binding test (Biacore 3000, biotin-LC-BSA immobilized); conditions: Biotin-BSA (22.4 Å)
Protocol: High-purity BSA (Sigma, 2 mg) and NHS-LC-biotin (Pierce, 1 mg) were dissolved in 50 mM sodium borate (pH 8.0, 1 mL) and were incubated at 4° C. for 2 hours. The solution was put into a dialysis tube (MWCO 6-8,000) and was dialyzed with 50 mM sodium carbonate (pH 6.7) at 4° C. overnight. The resulting biotin-LC-BSA conjugate (MW: 67 kDa, 30 μM) was used as a ligand for a Biacore (registered trademark) biosensor.
Biotin-LC-BSA and BSA serving as a negative control were immobilized on CM5 sensor chips by amine coupling method. The amount for immobilization was adjusted to about 200 RU. The chips to which BSA was immobilized were disposed in flow cells 1 and 3, while the chips to which biotin-LC-BSA was immobilized were disposed in flow cells 2 and 4.
Accordingly, seven step measurement (3.125, 6.25, […], 25, 50, 100, and 200 nM) was conducted from the lowest concentration, without recycling steps. The data of BSA as reference was deducted from the data of BSA-LC-biotin. The measurement was performed at 25° C. The resulting sensorgrams were subjected to reaction kinetics analysis using analysis software BIAevaluation ver. 4.1 with a 1:1 binding model to calculate the binding rate constant (ka) and the dissociation rate constant (kd). The dissociation constant (KD) was determined from kd/ka. In the case where no recycling step is employed, the Rmax (maximum amount of binding analyte) decreases at each measurement. Accordingly, in the analysis, the Rmax was calculated by conducting local fitting for each concentration, and only the data of analyte concentrations that were approximated to the 1:1 binding model was employed.
TM2 and HALU TM2 used as analytes were prepared by purification with 2-iminobiotin agarose in accordance with a common method and dialysis with 20MM KPi (pH 7) overnight. The analytes were each adjusted to about 50 μg/mL in 10 mM acetate buffer (pH 5, Biacore).
The immobilization of the ligand and measurement and analysis of specific interaction with the analytes were conducted as in paragraph 2-7-2).

human serum protein [5] = experiment: Non-specific adsorption of serum protein to HALU TM2-immobilized magnetic beads; assay type: binding; conditions: human serum diluted 800 times, anti-human IgG detection
Protocol: In this Example, non-specific adsorption of serum protein to HALU TM2-immobilized magnetic beads was investigated.
TM2 D40NR104E and TM2 D40NR104EK141E were bonded covalently to magnetic beads (Dynabeads M-270 Carboxylic Acid, Dynal) by the process described in paragraph 1-9) of Example 1, and the amount of human serum protein adsorbed to the beads was measured. The amount of each HALU TM2 immobilized to the magnetic beads was adjusted to 10 μg/100 μL beads. Human serum (CHEMICON) was diluted 800 times with a PBS buffer, and the HALU TM2-immobilized magnetic beads (50 μL) to which a certain amount of protein was immobilized were added to the diluted human serum, followed by mixing by turning the tube containing the beads upside down at room temperature for 15 minutes. The magnetic beads were washed with a PBS buffer containing 0.1% Tween 20 (PBST, 500 μL) four times and were then subjected to antigen-antibody reaction at room temperature for 15 minutes with HRP-labeled anti-human IgG mouse antibody (100 μL) diluted 5000 times with PBST containing 0.5% BSA. Subsequently, the beads were washed with PBST (500 μL) five times, followed by color development with 1-Step Ultra TMB-ELISA (100 μL). After termination of the color development with 2M sulfuric acid (100 μL), the magnetic beads were collected with a magnet. The absorbance at 450 nm of the supernatant was measured with an Infinite 200 microplate reader.

Molecule | Thermal stability (temp. at which 50% of protein was lost) [1] | pI observed [2] | decrease of adsorption to human serum protein compared to the wild type TM2 (human serum protein [3]; FIG. 1) | non-specific binding to human serum protein compared to TM2 (human serum protein [3]; FIG. 1) | Non-specific binding of serum protein (%) (human serum protein [3]; wild type TM2 = 100) | Non-specific binding of DNA (Salmon sperm DNA) | ka [4] | kd ([4]; values in parentheses) | Non-specific binding to serum protein (A450) (human serum protein [5]) | Non-specific binding to serum protein (A450) (human serum protein [5]; listed as D40NR104E)
streptavidin [reference compound] | 70 °C | – | – | – | – | – | – | – | – | –
B1 | – | 6.2 | 70% | significantly low | 25% | lower than the detection limit | – | – | – | –
B2 | 78 °C | 8.9 | – | – | – | – | 1.4 × 10^6 | (2.9 × 10^−9) | low | 0.56
